According to publication PMC9943658:

Key:
[1] = molecular target: His-T7-hnRNP C1 ΔACIDIC (UniProt P07910); test: SEC
[2] = molecular target: His-T7-hnRNP C1 ΔRRM (UniProt P07910); test: SEC

Row | stoichiometry N [1] | stoichiometry N [2] | Substance
1 | 2 | – | His-T7-hnRNP C1 ΔACIDIC (from UniProt P07910-2 1-293) (natural protein)
2 | – | 4 | His-T7-hnRNP C1 ΔRRM (from UniProt P07910-2 1-293) (natural protein)
